Assay results: patent publication EP4644419A1 (Hangzhou Zhongmeihuadong Pharmaceutical Co., Ltd., dated 2025)
Several values for one entry are separate records, joined by “and”; a condition that tells them apart may be missing. Identical values can stand only once.

T1: human CD112R on GS-J2C/CD112R effector cells (human, UniProt Q6DKI7 1-326)
T1 sequence (looked up): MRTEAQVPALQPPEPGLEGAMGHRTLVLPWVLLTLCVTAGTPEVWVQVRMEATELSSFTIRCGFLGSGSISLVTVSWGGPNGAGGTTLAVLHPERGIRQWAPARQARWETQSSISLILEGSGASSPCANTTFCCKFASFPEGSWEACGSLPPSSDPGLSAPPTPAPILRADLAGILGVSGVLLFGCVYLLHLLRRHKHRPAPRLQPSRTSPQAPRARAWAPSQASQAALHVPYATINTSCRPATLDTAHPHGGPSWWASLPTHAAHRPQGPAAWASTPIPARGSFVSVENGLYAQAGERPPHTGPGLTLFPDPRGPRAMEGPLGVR

T2: human CD112R antigen protein huCD112R-His (Acro Biosysterm, PVG-H52H4) (human, UniProt Q6DKI7 41-171)
T2 construct: purchased; also called human antigen protein; not shown: His tag
T2 sequence (looked up): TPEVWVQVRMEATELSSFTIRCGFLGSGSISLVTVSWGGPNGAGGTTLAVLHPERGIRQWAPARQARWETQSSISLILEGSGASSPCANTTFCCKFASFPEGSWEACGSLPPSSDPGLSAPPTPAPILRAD

T3: monkey antigen protein (monkey CD112R, Uniprot ID: A0A2K5WVV8) (monkey, UniProt A0A2K5WVV8 41-171)
T3 sequence: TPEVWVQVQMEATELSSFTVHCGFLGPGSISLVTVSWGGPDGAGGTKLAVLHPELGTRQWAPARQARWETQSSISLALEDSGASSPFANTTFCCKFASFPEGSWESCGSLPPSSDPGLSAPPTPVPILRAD

T4: human CD112R on antigen-specific CD8+ T cells (human, UniProt Q6DKI7 1-326)
T4 sequence (looked up): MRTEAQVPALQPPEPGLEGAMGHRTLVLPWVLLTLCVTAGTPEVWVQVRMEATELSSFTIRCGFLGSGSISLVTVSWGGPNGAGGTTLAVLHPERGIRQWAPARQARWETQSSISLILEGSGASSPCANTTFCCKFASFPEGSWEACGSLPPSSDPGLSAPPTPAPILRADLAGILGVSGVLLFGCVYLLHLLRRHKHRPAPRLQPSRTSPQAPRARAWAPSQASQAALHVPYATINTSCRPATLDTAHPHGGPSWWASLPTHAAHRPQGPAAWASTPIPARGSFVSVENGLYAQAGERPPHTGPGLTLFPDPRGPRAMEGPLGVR


Key:
[1] = biological target: T1, human CD112R on GS-J2C/CD112R effector …; assay: cell-based or functional assay
[2] = biological target: T2, human CD112R antigen protein …; assay: ELISA, huCD112R-His coated on plate
[3] = biological target: T2, human CD112R antigen protein …; assay: SPR (Biacore X100), antibody captured on Protein A chip, huCD112R-His as analyte, 1:1 Langmuir
[4] = biological target: T3, monkey antigen protein (monkey CD112R, …); assay: ELISA, monkey antigen protein (as Example 6.1)
[5] = biological target: T4, human CD112R on antigen-specific CD8+ T …; assay: cell-based or functional assay

| EC50 (Blocking effects of the antibodies, reporter gene method) [1] | EC50 [2] | Kd [3] | EC50 [4] | IFN-γ(pg/ml) at 0.5µg/ml antibody [5] | IFN-γ(pg/ml) at 5µg/ml antibody [5] | IFN-γ(pg/ml) at 50µg/ml antibody [5] | Binder |
| --- | --- | --- | --- | --- | --- | --- | --- |
| 0.045 µg/mL | 0.034 nM | 0.375 nM |  |  |  |  | C129 (antibody, human IgG1, kappa, V domains shown) VH: QVQLQQSGAELMTPGSSVKLSCKATGYTFTDYWIEWVKKRPGHGLEWIGEILPGYISTNYNEKFKDKATFTADTSSNTTYMQLSSLTSEDSAVYYCVLIVTTYYYFMDYWGQGTSVTVSS VL: QIVLTQSPAIMSASPGEKVTITCSASSSVTYMHWFQQKPGTSPKLWIYSTSNLASGVPVRFSGSGSGTSYSLTISRMEAEDAATYYCQQRSSYPWTFGGGTKLEIKR |
| 0.024 µg/mL | 0.038 nM | 0.156 nM | 0.094 nM |  |  |  | C132 (antibody, human IgG1, kappa, V domains shown) VH: QVQLQQSGAELMKPGSSVNLSCKATDYTFTDYWINWVKQRPGHGLEWIGEILPGSVTTNYNEKFRGKATFTADTSSNTAYMQLSSLTSEDSAVYFCARGSDYSYYAMDYWGQGTSVTVSS VL: not shown |
| 0.082 µg/mL | 0.082 nM | 0.274 nM | 0.074 nM |  |  |  | C152 (antibody, human IgG1, kappa, V domains shown) VH: QVQLQQSGTILARPGASVKMSCRASDYTFTDYWIQWIKQRPGQGLEWIGAIFPENGDTRYTQKFKGRATLTADKSSSTAYMQVNSLTSEDSAVYYCATFINYVDYWGQGTTLTVSS VL: QIVLIQSPAIMSASPGEKVTMTCSASSSVNNIHWYQQKSGTSPKRWIYDTTKLTSGVPARFSGSGSGTSYSLTISSMEAEDAATYYCQQWNINPYTFGGGTKLEIKR |
| 0.065 µg/mL | 0.034 nM | 0.346 nM |  | 696 pg/mL | 718 pg/mL | 763 pg/mL | anti-CD112R antibody CHA.7.518 (antibody, V domains shown, synthesised according to WO/2016/134333; also called Tab-1; Tab 1) VH: QVQLVQSGAEVKKPGASVKVSCKASGYTFTDYNINWVRQAPGQGLEWMGYIYPYIGGSGYAQKFQGRVTMTRDTSTSTVYMELSSLRSEDTAVYYCAREDKTARNAMDYWGQGTLVTVSS VL: DIQMTQSPSSLSASVGDRVTITCRVSENIYSNLAWYQQKPGKAPKLLIYEATNLAEGVPSRFSGSGSGTDFTLTISSLQPEDFATYYCQHFWGTPYTFGQGTKLEIKR |
| 0.061 µg/mL | 0.034 nM | 0.13 nM and 0.219 nM | 0.077 nM |  |  |  | C57 (antibody, human IgG1, kappa, V domains shown) VH: EVQLQQSGPVLVKPGASVKMSCKASGYIFTDYYMHWVKQSHGKSLEWIGIINPYNGDTSYNQKFKDKATLTVDKSSSTAYMELNSLTSEDSAVYYCARDSSNVGNAMDYWGQGTSVTVSS VL: DIQMTQTTSSLSASLGDRVTISCRASQDISNYLNWYLQKPDGTIKLLIYYSSRLHSGVPSRFSGSGSGTDYSLTISNLEQEDIATYFCQQGYTLPRTFGGGTKLEIIR |
| 0.082 µg/mL |  | 0.603 nM |  |  |  |  | C155 (antibody, human IgG1, kappa, V domains shown) VH: EVQLVESGGGLVKPGGSLRLSCAASGFTFSDYYMYWVRQAPGKGLEWVATISDAGGYTYYPDSVKGRFTISRDNAKNSLYLQMNSLRAEDTAVYYCGREDLWGQGTLVTVSS VL: DIQMTQSPSSLSASVGDRVTITCRASQDIGYSLNWFQQKPGKAPRRLIYATSRLDSGVPKRFSGSGSGTDFTLTISSLQPEDFATYYCLQYASFPYTFGGGTKLEIKR |
| 0.071 µg/mL |  | 0.724 nM |  |  |  |  | C154 (antibody, human IgG1, kappa, V domains shown) VH: EVQLVESGGGLVKPGGSLRLSCAASGFTFSDYYMYWVRQAPGKGLEWVSTISDAGGYTYYPDSVKGRFTISRDNAKNSLYLQMNSLRAEDTAVYYCAREDLWGQGTLVTVSS VL: DIQMTQSPSSLSASVGDRVTITCRASQDIGYSLNWFQQKPGKAPKRLIYATSRLDSGVPKRFSGSGSGTDFTLTISSLQPEDFATYYCLQYASFPYTFGGGTKLEIKR |
| 0.096 µg/mL |  | 0.946 nM |  |  |  |  | C156 (antibody, human IgG1, kappa, V domains shown) VH: EVQLVESGGGLVKPGGSLRLSCAASGFTFSDYYMYWVRQAPGKGLEWVATISDAGGYTYYPDSVKGRFTISRDNAKNSLYLQMNSLRAEDTAVYFCGREDLWGQGTLVTVSS VL: DIQMTQSPSSLSASVGDRVTITCRASQDIGYSLNWFQQKPGKAPKRLIYATSRLDSGVPKRFSGSGSGTDFTLTISSLQPEDFATYYCLQYASFPYTFGGGTKLEIKR |
| 0.039 µg/mL | 0.034 nM | 0.8 nM | 0.054 nM |  |  |  | C64 (antibody, human IgG1, kappa, V domains shown) VH: EVMLVESGGDLVKPGGSLKLSCAASGFTFSSYFMSWVRQTPEKRLEWVATISGGGDKTYYLDILKGRFTISRDNAKNTLYLQMSSLRSEDTALYYCARHEDYAWYAMDYWGQGTSVTVSS VL: QIVLTQSPAIMSASPGEKVTMTCSASSSVNYIYWYQQKPGSSPRLLIYDTSNLASGVPVRFSGSGSGTSYSLTISRMEAEDAATYYCQQWSSYPLTFGAGTKLELKR |
| 0.032 µg/mL | 0.032 nM | 0.704 nM and 0.571 nM | 0.043 nM |  |  |  | C62 (antibody, human IgG1, kappa, V domains shown) VH: EVMLVESGGGLVKPGGSLKLSCAASGFSFSSYSMSWVRQTPEKRLECVATIGGVGGNTYYPDSVKGRFSISRDNAKNTLYLQMSSLRSEDTALYYCARHEDYYYYAMDYWGQGTSVTVSS VL: QIVLTQSPAIMSASPGEKVTMTCSANSTVSYIYWYQQKPGSSPRLLIYDTSNLASGVPVRFSGSGSGTSYYLTISRMEAEDAATYYCQQWSSFPFTFGSGTKLEIKR |
| 0.023 µg/mL | 0.054 nM | 0.488 nM | 0.09 nM |  |  |  | C63 (antibody, human IgG1, kappa, V domains shown) VH: EVMLVESGGGLVKPGGSLKLSCAASGFIFSSYIMSWVRQTPEKRLEWVATIRGGGGNTYYLDSVKGRFIISRDNAKNNLYLQMSSLRSEDTALYYCARHEDYEWYAMDNWGQGTSVTVSS VL: QIVLTQSPAIMSASPGEKVTLTCSARSSVSYMYWYQQKPGSSPKLLIYDTSNLASGVPVRFSGSGSGTSYSLTISRMEAEDAATYYCQQWSSYPLTFGAGTKLELKR |
| 0.029 µg/mL | 0.039 nM | 0.55 nM | 0.052 nM |  |  |  | C138 (antibody, human IgG1, kappa, V domains shown) VH: EVQLVESGGGLVKPGGSLKLSCAASGFTFSSYAMSWVRQTPAKRLEWVATITSGDIRTYYPDTVKGRFTISRDNAKNTLYLQMRSLRSEDTAMYYCVGHDDFHFYAMDYWGQGTSVTVSS VL: QIVLTQSPAIMSASPGEKVTMTCSASSSVSYLYWYQQKPGSSPRLLIYDTSNLASGVPVRFSGSGSGTSYSLTLSRMEAEDAATYYCQQWSSYPLTFGAGTKLELKR |
| 0.029 µg/mL | 0.037 nM | 0.158 nM | 0.05 nM |  |  |  | C71 (antibody, human IgG1, kappa, V domains shown) VH: EVILVESGGGLVKPGGSRKLSCAASGFTFSSYFMSWVRQTPEKRLEWVATISGGGDNTYYPDSVKGRFTISRDNAKNTLYLQMSSLRSEDTALYYCARHEDYEWYAMDYWGQGTSVTVSS VL: QIVLTQSPAIMSTSPGEKVTMTCSASSSVSYIYWYQQKPGSSPRLLIYDTSNLASGVPVRFSGSGSGTSYSLTISRMEAEDAATYYCQQWTSYPLTFGAGTKLELKR |
| 0.015 µg/mL | 0.033 nM | 0.243 nM | 0.059 nM |  |  |  | C124 (antibody, human IgG1, kappa, V domains shown) VH: EVQLVESGGGLVKPGGSLKLSCAASGFTFSSFAMSWVRQTPAKRLESVATINNGGINTYYPDTVKGRFTVSRDNAKNTLYLQMSSLRSEDTAMYYCARHDDFLYYAMDYWGQGTSVTVSS VL: QIVLTQSPAIMSASPGEKVTMTCSASSSVSYMYWYQQKPGSSPRLLIYDTSNLASGVPVRFSGSGSGTSYSLTISRMEAEDAATYYCQQWTSYPLTFGAGTKLELKR |
| 0.03 µg/mL | 0.06 nM | 0.02 nM | 0.08 nM |  |  |  | C67 (antibody, human IgG1, kappa, V domains shown) VH: EAQLQQSGPELVKPGASVKISCKASGYTFTDYYMNWVKQSHGKSLDWIGDINPDNGGSTYNQKFKGKATLTVDKSSSTAYMELRSLTSEDSAVYYCSASGPPYVLLDYWGQGTSVIVSS VL: DIQMTQSPASLSASVGETVTITCQTSENIYSYLAWYQQKQGKSPQLLVYNTQTLAEGVPSRFSGSRSGAQFSLKINSLQPEDFGSYYCQHHYGVPLTFGAGTKLELKR |
| 0.052 µg/mL | 0.056 nM | 0.506 nM and 0.334 nM | 1.29 nM |  |  |  | C55 (antibody, human IgG1, kappa, V domains shown) VH: EVQLQQSGPELVKPGASVKISCKASGYTFTDYYMSWVKQSHGKSLEWIGDVNPNNGDTSYNQKFKGKATLTVDKSSSTAYMELRSLTSEDSAVYYCAASGLPYVLMDYWGQGTSVTVSS VL: DIQMTQSPASLSASVGETVTITCRASENINSYLAWYQQKQGKSPQLLVYNTKTLTEDVPSRFSGSGSGTQFSLKINSLQPEDFGSYYCQHHYGTPLTFGGGTKLELKR |
